Experiments:
[1] = molecular target: humanized NKP46 protein (engineered mouse NKP46 after humanization) (human/mouse chimera (human NKP46 amino acids 2-253 replacing mouse 2-253; rest mouse)); assay: flow cytometry, spleen NK cells of NKP46 humanized heterozygous mouse
[2] = molecular target: mouse NKP46 (NCR1) protein, NP_034876.2 (mouse) (UniProt Q8C567); assay: flow cytometry, spleen NK cells of C57BL/6 wild-type mouse
[3] = molecular target: mouse NKP46 (NCR1) protein, NP_034876.2 (mouse) (UniProt Q8C567); assay: flow cytometry, peripheral blood NK cells of C57BL/6 wild-type mouse
[4] = molecular target: humanized NKP46 protein (engineered mouse NKP46 after humanization) (human/mouse chimera (human NKP46 amino acids 2-253 replacing mouse 2-253; rest mouse)); assay: flow cytometry, peripheral blood NK cells of NKP46 humanized heterozygous mouse
[5] = molecular target: mouse NKP46 (NCR1) protein, NP_034876.2 (mouse) (UniProt Q8C567); assay: flow cytometry, peripheral blood NK cells of C57BL/6 wild-type mouse; remark: listed apart in the source
[6] = molecular target: humanized NKP46 protein (engineered mouse NKP46 after humanization) (human/mouse chimera (human NKP46 amino acids 2-253 replacing mouse 2-253; rest mouse)); assay: flow cytometry, peripheral blood NK cells of NKP46 humanized homozygous mouse
[7] = molecular target: humanized NKP46 protein (engineered mouse NKP46 after humanization) (human/mouse chimera (human NKP46 amino acids 2-253 replacing mouse 2-253; rest mouse)); assay: flow cytometry, spleen NK cells of NKP46 humanized homozygous mouse
[8] = molecular target: mouse NKP46 (NCR1) protein, NP_034876.2 (mouse) (UniProt Q8C567); assay: flow cytometry, spleen NK cells of C57BL/6 wild-type mouse; remark: listed apart in the source
[9] = molecular target: mouse NKP46 (NCR1) protein, NP_034876.2 (mouse) (UniProt Q8C567); assay: flow cytometry, spleen NK cells of NKP46 humanized heterozygous mouse (cells carry mouse and humanized NKP46)
[10] = molecular target: mouse NKP46 (NCR1) protein, NP_034876.2 (mouse) (UniProt Q8C567); assay: flow cytometry, peripheral blood NK cells of NKP46 humanized heterozygous mouse (cells carry mouse and humanized NKP46)

UniProt Q8C567, sequence (Q8C567 17-325 R131Q): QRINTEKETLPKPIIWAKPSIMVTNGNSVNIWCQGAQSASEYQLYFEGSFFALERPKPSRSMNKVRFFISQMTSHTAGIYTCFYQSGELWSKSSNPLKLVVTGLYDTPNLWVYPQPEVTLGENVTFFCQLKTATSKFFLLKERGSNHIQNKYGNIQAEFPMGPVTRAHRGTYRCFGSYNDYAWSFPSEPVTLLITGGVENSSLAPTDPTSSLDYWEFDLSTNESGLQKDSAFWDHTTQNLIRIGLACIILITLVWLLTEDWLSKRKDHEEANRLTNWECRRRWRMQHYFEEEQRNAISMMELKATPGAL
humanized NKP46 protein (engineered mouse NKP46 after humanization) (human/mouse chimera (human NKP46 amino acids 2-253 replacing mouse 2-253; rest mouse)), sequence (chain, as listed by the source mutant limits assumed): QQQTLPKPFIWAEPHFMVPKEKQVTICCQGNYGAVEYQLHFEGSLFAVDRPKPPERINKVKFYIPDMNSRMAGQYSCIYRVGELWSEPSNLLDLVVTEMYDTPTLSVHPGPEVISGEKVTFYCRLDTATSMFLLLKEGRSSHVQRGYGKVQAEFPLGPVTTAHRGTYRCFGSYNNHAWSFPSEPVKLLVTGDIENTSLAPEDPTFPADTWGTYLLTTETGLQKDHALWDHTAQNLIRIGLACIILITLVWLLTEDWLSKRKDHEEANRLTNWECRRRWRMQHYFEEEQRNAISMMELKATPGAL

Substance | % mCD45+ mNK1.1+ hNKP46+ cells [1] [%] | % mCD45+ mNK1.1+ hNKP46+ cells [2] [%] | % mCD45+ mNK1.1+ hNKP46+ cells [3] [%] | % mCD45+ mNK1.1+ hNKP46+ cells [4] [%] | % mCD45+ mNK1.1+ hNKP46+ cells [5] [%] | % mCD45+ mNK1.1+ hNKP46+ cells [6] [%] | % mCD45+ mNK1.1+ hNKP46+ cells [7] [%] | % mCD45+ mNK1.1+ hNKP46+ cells [8] [%] | % mCD45+ mNK1.1+ mNKP46+ cells [2] [%] | % mCD45+ mNK1.1+ mNKP46+ cells [3] [%] | % mCD45+ mNK1.1+ mNKP46+ cells [5] [%] | % mCD45+ mNK1.1+ mNKP46+ cells [6] [%] | % mCD45+ mNK1.1+ mNKP46+ cells [9] [%] | % mCD45+ mNK1.1+ mNKP46+ cells [10] [%] | % mCD45+ mNK1.1+ mNKP46+ cells [7] [%] | % mCD45+ mNK1.1+ mNKP46+ cells [8] [%]
PE anti-human CD335 (NKP46) Antibody (BioLegend, Catalog number: 331907) | 4.08 | 0.14 | 0.034 | 4.95 | 0.056 | 3.55 | 2.79 | 0.11 |  |  |  |  |  |  |  | 
APC anti-mouse CD335 (NKP46) Antibody (BioLegend, Catalog number: 137607) |  |  |  |  |  |  |  |  | 4.21 | 2.81 | 3.96 | 0.009 | 3.44 | 4.33 | 0.035 | 2.25

— patent US20250143272A1
